Laboratory results: US20120141463A1 (AstraZeneca / MedImmune, published 2012)
No end group written: not given here. Ahx = NCCCCCC(=O)O

T1: peptide from phosphoinositide binding protein (human)
T1 construct: also called peptide (vi); PIBP peptide
T1 peptide: TQLLCVEAFEGEEPW-{Ahx-K(biotin)}

T2: ε-migis peptide (human)
T2 construct: also called peptide (i); human ε-migis
T2 peptide: ELDVCVEEAEGEAPW-{Ahx-K(biotin)}

T3: cεmx.migis peptide (human, C-terminal -(Ahx)(K-Biot): aminohexanoic acid linker followed by a biotinylated lysine)
T3 construct: also called peptide (ii); cεmx.migs peptide
T3 peptide: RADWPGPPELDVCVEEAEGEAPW


Columns and labels:
[1] = molecular target: T1, peptide from phosphoinositide binding …; assay: peptide ELISA (Migis, cemx.migis, PIBP peptide); antibody concentration not shown
ε-migis peptide = molecular target: T2, ε-migis peptide; assay: as above
cεmx.migis peptide [2] = molecular target: T3, cεmx.migis peptide; assay: inhibition phage ELISA: cεmx.migis peptide on Neutravidin plate, phage with control IgG, A1c or B1, anti-M13-HRP
mIgM on RPMI 1788 cells = molecular target: T4, mIgM on RPMI 1788 cells (human, UniProt P01871 1-474); assay: FACS, primary antibody plus secondary (Gt α Mu or G α Hu); % cells staining and MF
T4 construct: whole, on cells; Endogenous immunoglobulin of the cell line; light chain not described; also called IgM (RPMI 1788 cells); membrane IgM

cεmx.migis peptide [3] = molecular target: T3, cεmx.migis peptide; assay: inhibition phage ELISA: cεmx.migis peptide on Neutravidin plate, phage with irrelevant IgG control or A1c IgG, anti-M13-HRP

T4 sequence (P01871 whole entry): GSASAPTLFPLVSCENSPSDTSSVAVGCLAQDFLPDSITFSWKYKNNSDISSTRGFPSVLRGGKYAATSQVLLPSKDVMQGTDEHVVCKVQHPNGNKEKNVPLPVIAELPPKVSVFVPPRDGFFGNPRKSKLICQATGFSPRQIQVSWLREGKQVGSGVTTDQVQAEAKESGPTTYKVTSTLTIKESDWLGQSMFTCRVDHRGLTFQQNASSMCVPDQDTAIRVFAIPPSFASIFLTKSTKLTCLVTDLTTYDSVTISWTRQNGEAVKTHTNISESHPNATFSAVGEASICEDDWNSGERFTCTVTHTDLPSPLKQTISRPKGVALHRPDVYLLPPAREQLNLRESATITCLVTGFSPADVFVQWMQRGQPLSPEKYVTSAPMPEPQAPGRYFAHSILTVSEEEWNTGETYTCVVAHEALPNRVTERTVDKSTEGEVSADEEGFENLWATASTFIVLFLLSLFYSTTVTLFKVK

Binder | binding result [1] | binding result (ε-migis peptide) | binding result (cεmx.migis peptide [2]) | binding result (mIgM on RPMI 1788 cells) | binding result (cεmx.migis peptide [3])
D5 antibody (antibody, V domains shown, Fully human clone from the Dyax FAB-310 Fab phage library, converted to full length IgG (detected with an anti-human IgG1 Fc antibody); also called D5 IgG; clone D5) VH: EVQLLESGGGLVQPGGSLRLSCAASGFTFSKYHMVWVRQAPGKGLEWVSSIGPSGGNTYYADSVKGRFTISRDNSKNTLYLQMNSLRAEDTATYYCARALGATFDYWGQGTLVTVSS VL: DIQMTQSPLSLPVTLGQPASISCKSSQSLVYRDGITYLSWFQQRPGQSPRRLIYKVSNRDSGVPDRFSGSGSDSNFTLKISSVEAEDVGLYFCMQGSHWPFTFGPGTKVDIKR | no binding | no binding | binds | no binding | –
F4 antibody (antibody, V domains shown, Human Fab phage clone converted to full length IgG; also called clone F4) VH: EVQLLESGGGLVQPGGSLRLSCAASGFTFSNYGMFWVRQAPGKGLEWVSSIWPSGGNTMYADSVKGRFTISRDNSKNTLYLQMNSLRAEDTAVYYCARASYYGMDVWGQGTTVTVSS VL: DIQMTQSPSSLSASIGDRVTITCRGSQNIGRYLNWYQHKPGKAPDLLVYAASSLRSGVPSRFSGSGSGRDFTLTISSLQPGDFATYYCQQSYSAPFTFGAGTKVDVKR | – | – | binds | – | –
A1c antibody (antibody, V domains shown, Human Fab phage clone converted to full IgG; also called anti ε-migis antibody A1c) VH: EVQLLESGGGLVQPGGSLRLSCAASGFTFSFYSMLWVRQAPGKGLEWVSYIGPSGGKTYYADSVKGRFTISRDNSKNTLYLQMNSLRAEDTAMYYCARRYCSGGSCYFDYWGQGTLVTVSS VL: DIQMTQSPSTLSASIGDRVTITCRASQSINSWLAWYQQKPGKGPDLLIYKASSLQSGVPSRFSGSGSGTEFTLTISSLQPDDFATYYCQQYSSWPLTFGGGTKVEIKR | binds | binds | – | – | binds
B1 antibody (antibody, V domains shown, Human Fab phage clone converted to full IgG; also called CP1-B1) VH: not shown VL: DIQMTQSPVSLPVTLGQPASISCRSSHSLVYSHGGTYLNWFQQRPGRSPRRLIYQVSNRDSGVPDRFSGSGSDTDFTLQISRVEADDIGIYYCMQSTYWPYAFGQGTKLDIKR | no binding | no binding | binds | – | –
